Assays:
[1] = tested on: wild-type and variant SNAP-GIPR; test: Single-concentration GIP cAMP response by HTRF in INS-1 cells; type: cell-based, human; settings: Fig S3E, mean
Protocol: All variants were tested in parallel on each occasion to control for transfection efficiency differences between experiments.

[2] = tested on: wild-type and variant SNAP-GIPR; test: Surface SNAP-GIPR expression (SNAP-tag labelling) in AD293 cells; type: cell-based, human; settings: for AD293 Surface: Fig S3E, mean; for Surface SNAP-GIPR expression: sheet Fig 1C;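 for all read-outs here: scaled to the experimental average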
Outline: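 Read-out: whole-cell fluorescence of surface-only SNAP label (Alexa Fluor 647, 500 nM, 10 min, RT), wide-field 20X, several FOVs per well. Flat-field corrected, phase-contrast masked, nontransfected-well signal subtracted; normalized to experiment mean or wild-type.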

[3] = tested on: wild-type and variant SNAP-GIPR; test: Constitutive and agonist-mediated internalization, reversible SNAP-tag labelling, INS-1 cells; type: cell-based, human; set-up: key to Internalisation, GIP-only / Internalisation, Vehicle / Internalisation, +GIP: % internalization: residual fluorescence after Mesna vs pre-Mesna; settings: Mean
Outline: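 Percentage internalization calculated as specific SNAP fluorescence remaining after 10 min Mesna exposure, relative to pre-Mesna signal, imaged in TNE buffer (pH 8.6).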

[4] = tested on: wild-type and variant SNAP-GIPR in Gipr-/- mouse islets; test: Insulin secretion from Gipr-/- mouse islets transduced with GIPR adenoviruses; type: cell-based; settings: Fig 6D, Gipr-/- mouse islets
[5] = tested on: wild-type and variant SNAP-GIPR in wild-type mouse islets; test: Insulin secretion from wild-type mouse islets transduced with GIPR adenoviruses; type: cell-based; settings: Fig 6F
Outline: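 Groups of 8–10 isolated islets were exposed to agonist or vehicle; secreted insulin was measured in supernatants and content in sonicated lysates. Secretion was expressed as % of total (secreted plus content), then normalized to vehicle and given as fold change.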

[6] = tested on: wild-type and variant SNAP-GIPR in Gipr-/- mouse islets; test: Glucagon secretion from Gipr-/- mouse islets transduced with GIPR adenoviruses; type: cell-based; settings: Fig S6C, Gipr-/- mouse islets

B1: E288G (protein)
chain: RAETGSKGQTAGELYQRWERYRRECQETLAAAEPPSGLACNGSFDMYVCWDYAAPNATARASCPWYLPWHHHVAAGFVLRQCGSDGQWGLWRDHTQCENPEKNEAFLDQRLILERLQVMYTVGYSLSLATLLLALLILSLFRRLHCTRNYIHINLFTSFMLRAAAILSRDRLLPRPGPYLGDQALALWNQALAACRTAQIVTQYCVGANYTWLLVEGVYLHSLLVLVGGSEEGHFRYYLLLGWGAPALFVIPWVIVRYLYENTQCWGRNEVKAIWWIIRTPILMTILINFLIFIRILGILLSKLRTRQMRCRDYRLRLARSTLTLVPLLGVHEVVFAPVTEEQARGALRFAKLGFEIFLSSFQGFLVSVLYCFINKEVQSEIRRGWHHCRLRRSLGEEQRQLPERAFRALPSGSGPGEVPTSRGLSSGTLPGPGNEASRELESYC
- INS-1 cAMP (100 nM) [1]: 0.3027
- AD293 Surface ([2]; column repeated, paired with cAMP 100 nM): 0.1748
- AD293 Surface ([2]; paired with cAMP 100 pM): 0.1748
- Surface SNAP-GIPR expression ([2]; replicate 1): 0.1869
- Surface SNAP-GIPR expression ([2]; replicate 2): 0.267
- Surface SNAP-GIPR expression ([2]; replicate 3): 0.08361
- Surface SNAP-GIPR expression ([2]; replicate 4): 0.1519
- Surface SNAP-GIPR expression ([2]; replicate 5): 0.1987
- Surface SNAP-GIPR expression ([2]; replicate 6): 0.07439
- Surface SNAP-GIPR expression ([2]; replicate 7): 0.7465
- Surface SNAP-GIPR expression ([2]; replicate 8): 0.3261
- Surface SNAP-GIPR expression ([2]; replicate 9): 0.1689
- Surface SNAP-GIPR expression ([2]; replicate 10): 0.2273
- Surface SNAP-GIPR expression ([2]; replicate 11): 0.2845
- Surface SNAP-GIPR expression ([2]; replicate 12): 0.2606
- Surface SNAP-GIPR expression ([2]; replicate 13): 0.07673
- Surface SNAP-GIPR expression ([2]; replicate 14): 0.0817
- Surface SNAP-GIPR expression ([2]; replicate 15): 0.1221
- Surface SNAP-GIPR expression ([2]; replicate 16): 0.1487
- Surface SNAP-GIPR expression ([2]; replicate 17): 0.2042
- Surface SNAP-GIPR expression ([2]; replicate 18): 0.1937
- Surface SNAP-GIPR expression ([2]; replicate 19): 0.1495
- Surface SNAP-GIPR expression ([2]; replicate 20): 0.1825
- Surface SNAP-GIPR expression ([2]; replicate 21): 0.2069
- Surface SNAP-GIPR expression ([2]; replicate 22): 0.1788
- Surface SNAP-GIPR expression ([2]; replicate 23): 0.167
- Surface SNAP-GIPR expression ([2]; replicate 24): 0.1096
- Surface SNAP-GIPR expression ([2]; replicate 25): 0.2053
- Surface SNAP-GIPR expression ([2]; replicate 26): 0.1578
- Surface SNAP-GIPR expression ([2]; replicate 27): 0.0991
- Surface SNAP-GIPR expression ([2]; replicate 28): 0.1213
- Surface SNAP-GIPR expression ([2]; replicate 29): 0.1325
- Surface SNAP-GIPR expression ([2]; replicate 30): 0.1696
- Surface SNAP-GIPR expression ([2]; replicate 31): 0.159
- Surface SNAP-GIPR expression ([2]; replicate 32): 0.181
- Surface SNAP-GIPR expression ([2]; replicate 33): 0.1299
- Surface SNAP-GIPR expression ([2]; replicate 34): 0.1533
- Surface SNAP-GIPR expression ([2]; replicate 35): 0.1527
- Surface SNAP-GIPR expression ([2]; replicate 36): 0.05767
- Surface SNAP-GIPR expression ([2]; replicate 37): 0.09894
- Surface SNAP-GIPR expression ([2]; replicate 38): 0.1179
- Surface SNAP-GIPR expression ([2]; replicate 39): 0.124
- Surface SNAP-GIPR expression ([2]; replicate 40): 0.1489
- Surface SNAP-GIPR expression ([2]; replicate 41): 0.1584
- +GIP internalisation (100 nM) ([3]; Fig 4G, GIP 100 nM): 0.1101
- GIP-specific internalisation (100 nM) ([3]; Fig 4G, GIP 100 nM): 0.004755
- Constitutive internalisation (100 nM) ([3]; Fig 4G): 0.1053
- Internalisation, +GIP ([3]; Fig S4C, INS-1): 49.4833
- Internalisation, GIP-only ([3]; Fig S4C, INS-1): 2.12
- Internalisation, Vehicle ([3]; Fig S4C, INS-1): 47.3633
- Insulin secretion, ratio G11 + GIP / G11 ([4]; replicate 1): 2.545
- Insulin secretion, ratio G11 + GIP / G11 ([4]; replicate 2): 0.8478
- Insulin secretion, ratio G11 + GIP / G11 ([4]; replicate 3): 2.186
- Insulin secretion, ratio G11 + GIP / G11 ([4]; replicate 4): 1.083
- Insulin secretion, ratio G11 + GIP / G11 ([5]; replicate 1): 0.8131
- Insulin secretion, ratio G11 + GIP / G11 ([5]; replicate 2): 1.885
- Insulin secretion, ratio G11 + GIP / G11 ([5]; replicate 3): 1.6101
- Insulin secretion, ratio G11 + GIP / G11 ([5]; replicate 4): 1.127
- Insulin secretion, ratio G11 + GIP / G11 ([5]; replicate 5): 2.303
- Glucagon secretion, ratio G0.5 + GIP / G0.5 ([6]; replicate 1): 2.014
- Glucagon secretion, ratio G0.5 + GIP / G0.5 ([6]; replicate 2): 1.482
- Glucagon secretion, ratio G0.5 + GIP / G0.5 ([6]; replicate 3): 1.8204
- Glucagon secretion, ratio G0.5 + GIP / G0.5 ([6]; replicate 4): 1.525

Source: article PMC13544220, “Glycemic and bodyweight effects of GIPR coding variation reflect differences in surface expression and intrinsic functional impairment” (Science Advances, 2026)
